± gives the standard deviation of the averaged measurements.
Test: total protein half-life in vivo (active degradation + dilution); higher = more stable protein
[1] = E. coli NCM3722 delta-clpP delta-lon delta-hslV, growth: N-lim chemostat, doubling time 6 h
[2] = E. coli NCM3722 delta-clpP, growth: N-lim chemostat, doubling time 6 h
[3] = E. coli NCM3722 delta-hslV, growth: N-lim chemostat, doubling time 6 h
[4] = E. coli NCM3722 delta-lon, growth: N-lim chemostat, doubling time 6 h
[5] = E. coli NCM3722 delta-smpB, growth: N-lim chemostat, doubling time 6 h
[6] = wild type E. coli NCM3722, growth: C-lim chemostat, doubling time 3 h
[7] = wild type E. coli NCM3722, growth: C-lim chemostat, doubling time 6 h
[8] = wild type E. coli NCM3722, growth: C-lim chemostat, doubling time 12 h
[9] = wild type E. coli NCM3722, growth: N-lim chemostat, doubling time 6 h
[10] = wild type E. coli NCM3722, growth: N-lim chemostat, doubling time 12 h
[11] = wild type E. coli NCM3722, growth: P-lim chemostat, doubling time 6 h
[12] = wild type E. coli NCM3722, growth: P-lim chemostat, doubling time 12 h

Sequence	total protein half-life in vivo [1]	total protein half-life in vivo [2]	total protein half-life in vivo [3]	total protein half-life in vivo [4]	total protein half-life in vivo [5]	total protein half-life in vivo [6]	total protein half-life in vivo [7]	total protein half-life in vivo [8]	total protein half-life in vivo [9]	total protein half-life in vivo [10]	total protein half-life in vivo [11]	total protein half-life in vivo [12]
MKRLIVGISGASGAIYGVRLLQVLRDVTDIETHLVMSQAARQTLSLETDFSLREVQALADVTHDARDIAASISSGSFQTLGMVILPCSIKTLSGIVHSYTDGLLTRAADVVLKERRPLVLCVRETPLHLGHLRLMTQAAEIGAVIMPPVPAFYHRPQSLDDVINQTVNRVLDQFAITLPEDLFARWQGA [P0AG03]	5.38 ± 0.31 h	4.35 ± 0.49 h	4.3 ± 0.56 h	4.77 ± 0.86 h	4.678 ± 0.041 h	3.22 ± 0.35 h	6.52 ± 0.94 h	11.2 ± 1.5 h	4.09 ± 0.35 h	7.54 ± 1 h	5.53 ± 0.22 h	11.9 ± 0.56 h
MKVTLPEFERAGVMVVGDVMLDRYWYGPTSRISPEAPVPVVKVNTIEERPGGAANVAMNIASLGANARLVGLTGIDDAARALSKSLADVNVKCDFVSVPTHPTITKLRVLSRNQQLIRLDFEEGFEGVDPQPLHERINQALSSIGALVLSDYAKGALASVQQMIQLARKAGVPVLIDPKGTDFERYRGATLLTPNLSEFEAVVGKCKTEEEIVERGMKLIADYELSALLVTRSEQGMSLLQPGKAPLHMPTQAQEVYDVTGAGDTVIGVLAATLAAGNSLEEACFFANAAAGVVVGKLGTSTVSPIELENAVRGRADTGFGVMTEEELKLAVAAARKRGEKVVMTNGVFDILHAGHVSYLANARKLGDRLIVAVNSDASTKRLKGDSRPVNPLEQRMIVLGALEAVDWVVSFEEDTPQRLIAGILPDLLVKGGDYKPEEIAGSKEVWANGGEVLVLNFEDGCSTTNIIKKIQQDKKG	5.6 ± 0.12 h	5.98 ± 1.2 h	5.19 ± 0.094 h	5.89 ± 0.14 h	5.15 ± 0.11 h	3.1 ± 0.062 h	5.74 ± 0.21 h	11.032 ± 0.011 h	5.3 ± 0.34 h	9.17 ± 0.1 h	5.82 ± 0.12 h	12.3 ± 0.15 h
MKKIIETQRAPGAIGPYVQGVDLGSMVFTSGQIPVCPQTGEIPADVQDQARLSLENVKAIVVAAGLSVGDIIKMTVFITDLNDFATINEVYKQFFDEHQATYPTRSCVQVARLPKDVKLEIEAIAVRSA [P0AGL2]	–	–	4.94 ± 0.13 h	5.08 ± 0.99 h	3.9 h	2.79 h	5.42 h	9.66 ± 1.9 h	–	7.12 h	6.2 h	10.6 ± 0.78 h
MSFSEFYQRSINEPEQFWAEQARRIDWQTPFTQTLDHSNPPFARWFCEGRTNLCHNAIDRWLEKQPEALALIAVSSETEEERTFTFRQLHDEVNAVASMLRSLGVQRGDRVLVYMPMIAEAHITLLACARIGAIHSVVFGGFASHSVAARIDDAKPVLIVSADAGARGGKIIPYKKLLDDAISQAQHQPRHVLLVDRGLAKMARVSGRDVDFASLRHQHIGARVPVAWLESNETSCILYTSGTTGKPKGVQRDVGGYAVALATSMDTIFGGKAGSVFFCASDIGWVVGHSYIVYAPLLAGMATIVYEGLPTWPDCGVWWTIVEKYQVSRMFSAPTAIRVLKKFPTAEIRKHDLSSLEVLYLAGEPLDEPTASWVSNTLDVPVIDNYWQTESGWPIMAIARGLDDRPTRLGSPGVPMYGYNVQLLNEVTGEPCGVNEKGMLVVEGPLPPGCIQTIWGDDGRFVKTYWSLFSRPVYATFDWGIRDADGYHFILGRTDDVINVAGHRLGTREIEESISSHPGVAEVAVVGVKDALKGQVAVAFVIPKESDSLEDRDVAHSQEKAIMALVDSQIGNFGRPAHVWFVSQLPKTRSGKMLRRTIQAICEGRDPGDLTTIDDPASLDQIRQAMEE	–	–	–	–	–	–	0.366 ± 0.12 h	0.611 h	–	–	–	–
MQREDVLGEALKLLELQGIANTTLEMVAERVDYPLDELRRFWPDKEAILYDALRYLSQQIDVWRRQLMLDETQTAEQKLLARYQALSECVKNNRYPGCLFIAACTFYPDPGHPIHQLADQQKSAAYDFTHELLTTLEVDDPAMVAKQMELVLEGCLSRMLVNRSQADVDTAHRLAEDILRFARCRQGGALT [P0ACU7]	3.74 ± 0.51 h	3.63 ± 0.25 h	4.07 ± 0.91 h	3.78 ± 0.57 h	3.411 ± 0.028 h	2.94 ± 0.46 h	4.86 ± 0.17 h	10.4 ± 2.6 h	3.44 ± 0.037 h	5.51 ± 0.28 h	5.04 ± 0.78 h	12 ± 0.99 h
MNIYTFDFDEIESQEDFYRDFSQTFGLAKDKVRDLDSLWDVLMNDVLPLPLEIEFVHLGEKTRRRFGALILLFDEAEEELEGHLRFNVRH	4.37 ± 1.1 h	3.85 h	5.5 h	7.32 h	4.41 ± 0.68 h	2.87 h	5.2 h	9.22 ± 0.45 h	4.83 ± 0.14 h	10.2 h	4.26 h	10.1 ± 1.3 h
MELRHLRYFVAVAQALNFTRAAEKLHTSQPSLSSQIRDLENCVGVPLLVRDKRKVALTAAGECFLQDALAILEQAENAKLRARKIVQEDRQLTIGFVPSAEVNLLPKVLPMFRLRQPDTLIELVSLITTQQEEKIRRGELDVGLMRHPVYSPEIDYLELFDEPLVVVLPVDHPLAHEKEITAAQLDGVNFVSTDPVYSGSLAPIVKAWFAQENSQPNIVQVATNILVTMNLVGMGLGVTLIPGYMNNFNTGQVVFRPIAGNVPSIALLMAWKKGEMKPALRDFIAIVQERLASVTA	5.58 ± 0.39 h	–	–	–	–	0.275 h	–	–	–	–	–	–

From the supplement of paper PMC11246515
